From the supplement of paper PMC10567573

B1: POMT2 (parent)
chain: VLRSRIRFIHLVTGCVLGSSGKVL

Variants of: B1
Test: protein stability index of a GFP-peptide fusion (GPS, HEK-293T) (PSI 1-6); higher = more stable
Details: c terminus: a fixed tail appended
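Further: lentivirally expressed fusions sorted by FACS into six bins by GFP to DsRed ratio, PSI derived from sequencing read proportions per bin multiplied by bin number.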

Row | Variant | protein stability index
1 | VLRSRIRFIHLVTGCVLGPSGKVL | 3.18
2 | VLRSRIRFIHLVTGCVLGLSGKVL | 1.78
3 | VLRSRIRFIHLVTGCVLGWSGKVL | 2.66
4 | VLRSRIRFIHLVTGCVLGVSGKVL | 2.73
5 | VLRSRIRFIHLVTGCVLGGSGKVL | 1.99
6 | VLRSRIRFIHLVTGCVLGMSGKVL | 3.45
7 | VLRSRIRFIHLVTGCVLGASGKVL | 1.93
8 | VLRSRIRFIHLVTGCVLGISGKVL | 2.59
9 | VLRSRIRFIHLVTGCVLGTSGKVL | 3.6
10 | VLRSRIRFIHLVTGCVLGFSGKVL | 2.63
11 | VLRSRIRFIHLVTGCVLGNSGKVL | 2.73
12 | VLRSRIRFIHLVTGCVLGKSGKVL | 1.67
13 | VLRSRIRFIHLVTGCVLGRSGKVL | 2.41
14 | VLRSRIRFIHLVTGCVLGCSGKVL | 2.51
15 | VLRSRIRFIHLVTGCVLGDSGKVL | 3.66
16 | VLRSRIRFIHLVTGCVLGSWGKVL | 2.12
17 | VLRSRIRFIHLVTGCVLGSEGKVL | 1.99
18 | VLRSRIRFIHLVTGCVLGSHGKVL | 2.64
19 | VLRSRIRFIHLVTGCVLGSGGKVL | 2.08
20 | VLRSRIRFIHLVTGCVLGSTGKVL | 3.42
21 | VLRSRIRFIHLVTGCVLGSDGKVL | 2.12
22 | VLRSRIRFIHLVTGCVLGSRGKVL | 2.82
23 | VLRSRIRFIHLVTGCVLGSFGKVL | 1.43
24 | VLRSRIRFIHLVTGCVLGSYGKVL | 2.86

Row | Variant | protein stability index
25 | VLRSRIRFIHLVTGCVLGSAGKVL | 3.46
26 | VLRSRIRFIHLVTGCVLGSIGKVL | 1.78
27 | VLRSRIRFIHLVTGCVLGSLGKVL | 2.12
28 | VLRSRIRFIHLVTGCVLGSMGKVL | 1.28
29 | VLRSRIRFIHLVTGCVLGSVGKVL | 1.85
30 | VLRSRIRFIHLVTGCVLGSPGKVL | 1.69
31 | VLRSRIRFIHLVTGCVLGSQGKVL | 3.58
32 | VLRSRIRFIHLVTGCVLGSCGKVL | 3.22
33 | VLRSRIRFIHLVTGCWLGSSGKVL | 2.43
34 | VLRSRIRFIHLVTGCNLGSSGKVL | 3.21
35 | VLRSRIRFIHLVTGCLLGSSGKVL | 3.58
36 | VLRSRIRFIHLVTGCILGSSGKVL | 1.6
37 | VLRSRIRFIHLVTGCYLGSSGKVL | 3.11
38 | VLRSRIRFIHLVTGCMLGSSGKVL | 3.73
39 | VLRSRIRFIHLVTGCPLGSSGKVL | 4.02
40 | VLRSRIRFIHLVTGCQLGSSGKVL | 2.89
41 | VLRSRIRFIHLVTGCELGSSGKVL | 2.4
42 | VLRSRIRFIHLVTGCDLGSSGKVL | 2.73
43 | VLRSRIRFIHLVTGCHLGSSGKVL | 3.17
44 | VLRSRIRFIHLVTGCFLGSSGKVL | 1.63
45 | VLRSRIRFIHLVTGCCLGSSGKVL | 2.73
46 | VLRSRIRFIHLVTGCKLGSSGKVL | 3.78
47 | VLRSRIRFIHLVTGCRLGSSGKVL | 4.75
48 | VLRSRIRFIHLVTGCGLGSSGKVL | 2.39

Row | Variant | protein stability index
49 | VLRSRIRFIHLVTGKVLGSSGKVL | 3.31
50 | VLRSRIRFIHLVTGAVLGSSGKVL | 3.27
51 | VLRSRIRFIHLVTGVVLGSSGKVL | 4.18
52 | VLRSRIRFIHLVTGYVLGSSGKVL | 3.56
53 | VLRSRIRFIHLVTGFVLGSSGKVL | 1.72
54 | VLRSRIRFIHLVTGGVLGSSGKVL | 3.07
55 | VLRSRIRFIHLVTGMVLGSSGKVL | 2.21
56 | VLRSRIRFIHLVTGSVLGSSGKVL | 3.04
57 | VLRSRIRFIHLVTGNVLGSSGKVL | 1.4
58 | VLRSRIRFIHLVTGRVLGSSGKVL | 2.13
59 | VLRSRIRFIHLVTGTVLGSSGKVL | 1.4
60 | VLRSRIRFIHLVTGPVLGSSGKVL | 2.12
61 | VLRSRIRFIHLVTGWVLGSSGKVL | 2.95
62 | VLRSRIRFIHLVTGIVLGSSGKVL | 1.67
63 | VLRSRIRFIHLVTGEVLGSSGKVL | 3.73
64 | VLRSRIRFIHLVTPCVLGSSGKVL | 2.97
65 | VLRSRIRFIHLVTTCVLGSSGKVL | 2.33
66 | VLRSRIRFIHLVTICVLGSSGKVL | 3.23
67 | VLRSRIRFIHLVTKCVLGSSGKVL | 3.83
68 | VLRSRIRFIHLVTVCVLGSSGKVL | 4.81
69 | VLRSRIRFIHLVTNCVLGSSGKVL | 2.11
70 | VLRSRIRFIHLVTECVLGSSGKVL | 1.96
71 | VLRSRIRFIHLVTMCVLGSSGKVL | 1.85
72 | VLRSRIRFIHLVTSCVLGSSGKVL | 3.28

Row | Variant | protein stability index
73 | VLRSRIRFIHLVTWCVLGSSGKVL | 2.51
74 | VLRSRIRFIHLVTACVLGSSGKVL | 4.85
75 | VLRSRIRFIHLVTDCVLGSSGKVL | 1.88
76 | VLRSRIRFIHLVTRCVLGSSGKVL | 2.85
77 | VLRSRIRFIHLVTLCVLGSSGKVL | 2.46
78 | VLRSRIRFIHLVTYCVLGSSGKVL | 3.68
79 | VLRSRIRFIHLVTFCVLGSSGKVL | 3.15
80 | VLRSRIRFIHLVTGCVLGSSGCVL | 2.73
81 | VLRSRIRFIHLVTGCVLGSSGAVL | 2.25
82 | VLRSRIRFIHLVTGCVLGSSGDVL | 3.31
83 | VLRSRIRFIHLVTGCVHGSSGKVL | 2.75
84 | VLRSRIRFIHLVTGCVFGSSGKVL | 1.62
85 | VLRSRIRFIHLVTGCVSGSSGKVL | 2.9
86 | VLRSRIRFIHLVTGCVGGSSGKVL | 3.47
87 | VLRSRIRFIHLVTGCVMGSSGKVL | 2.42
88 | VLRSRIRFIHLVTGCVQGSSGKVL | 1.08
89 | VLRSRIRFIHLVTGCVYGSSGKVL | 4.34
90 | VLRSRIRFIHLVTGCVWGSSGKVL | 3.74
91 | VLRSRIRFIHLVTGCVPGSSGKVL | 1.74
92 | VLRSRIRFIHLVTGCVDGSSGKVL | 3.16
93 | VLRSRIRFIHLVTGCVAGSSGKVL | 2.77
94 | VLRSRIRFIHLVTGCVVGSSGKVL | 2.1
